The target in the assay is anti-hCG monoclonal antibody from Organon Teknika, Boxtel, the Netherlands. As to the kind of experiment: competition: hCG displaces FpepT from anti-hCG Mab, fluorescence at 590 nm, fit to exchange model (K1).

As a reminder, the Kd is the concentration at which binding is half-saturated. “human chorionic gonadotrophin (hCG) (from UniProt P01215 25-116; P0DN86 21-165) (ligand)” yielded an equilibrium dissociation constant (Kd) of 0.49 nM.

For the origin of these results see patent publication US6576419.
